Here are results for two variants from publication PMC4944284.

B1: unnamed (parent)
chain: MPGFYEIVIKVPSDLDGHLPGISDSFVNWVAEKEWELPPDSDMDLNLIEQAPLTVAEKLQRDFLTEWRRVSKAPEALFFVQFEKGESYFHMHVLVETTGVKSMVLGRFLSQIREKLIQRIYRGIEPTLPNWFAVTKTRNGAGGGNKVVDESYIPNYLLPKTQPELQWAWTNMEQYLSACLNLTERKRLVAQHLTHVSQTQEQNKENQNPNSDAPVIRSKTSARYMELVGWLVDKGITSEKQWIQEDQASYISFNAASNSRSQIKAALDNAGKIMSLTKTAPDYLVGQQPVEDISSNRIYKILELNGYDPQYAASVFLGWATKKFGKRNTIWLFGPATTGKTNIAEAIAHTVPFYGCVNWTNENFPFNDCVDKMVIWWEEGKMTAKVVESAKAILGGSKVRVDQKCKSSAQIDPTPVIVTSNTNMCAVIDGNSTTFEHQQPLQDRMFKFELTRRLDHDFGKVTKQEVKDFFRWAKDHVVEVEHEFYVKKGGAKKRPAPSDADISEPKRVRESVAQPSTSDAEASINYADRLARGHSL

Variants of B1 are the subject of this assay. Description: sedimentation velocity (analytical ultracentrifugation), self-association. To be noted: with partner chain of the complex shown; parent: 1; read off a plot.
For MPGFYEIVIKVPSDLDGHLPGISDSFVNWVAEKEWELPPDSDMDLNLIEQAPLTVAEKLQRDFLTEWRRVSKAPEALFFVQFEKGESYFHMHVLVETTGVKSMVLGRFLSQIREKLIQRIYRGIEPTLPNWFAVTKTRNGAGGGNKVVDESYIPNYLLPKTQPELQWAWTNMEQYLSACLNLTERKRLVAQHLTHVSQTQEQNKENQNPNSDAPVIRSKTSARDMELVGWLVDKGITSEKQWIQEDQASYISFNAASNSRSQIKAALDNAGKIMSLTKTAPDYLVGQQPVEDISSNRIYKILELNGYDPQYAASVFLGWATKKFGKRNTIWLFGPATTGKTNIAEAIAHTVPFYGCVNWTNENFPFNDCVDKMVIWWEEGKMTAKVVESAKAILGGSKVRVDQKCKSSAQIDPTPVIVTSNTNMCAVIDGNSTTFEHQQPLQDRMFKFELTRRLDHDFGKVTKQEVKDFFRWAKDHVVEVEHEFYVKKGGAKKRPAPSDADISEPKRVRESVAQPSTSDAEASINYADRLARGHSL [chain 1 Y224D], the ratio to parent came to 0.1.
In the case of MPGFYEIVIKVPSDLDGHLPGISDSFVNWVAEKEWELPPDSDMDLNLIEQAPLTVAEKLQRDFLTEWRRVSKAPEALFFVQFEKGESYFHMHVLVETTGVKSMVLGRFLSQIREKLIQRIYRGIEPTLPNWFAVTKTRNGAGGGNKVVDESYIPNYLLPKTQPELQWAWTNMEQYLSACLNLTERKRLVAQHLTHVSQTQEQNKENQNPNSDAPVIRSKTSARFMELVGWLVDKGITSEKQWIQEDQASYISFNAASNSRSQIKAALDNAGKIMSLTKTAPDYLVGQQPVEDISSNRIYKILELNGYDPQYAASVFLGWATKKFGKRNTIWLFGPATTGKTNIAEAIAHTVPFYGCVNWTNENFPFNDCVDKMVIWWEEGKMTAKVVESAKAILGGSKVRVDQKCKSSAQIDPTPVIVTSNTNMCAVIDGNSTTFEHQQPLQDRMFKFELTRRLDHDFGKVTKQEVKDFFRWAKDHVVEVEHEFYVKKGGAKKRPAPSDADISEPKRVRESVAQPSTSDAEASINYADRLARGHSL [chain 1 Y224F], the ratio to parent was determined as 0.69.
